doi:10.1101/2022.05.23.492800 (2022)

Key:
Assay in all cases: multimer staining
[1] = target: T1, SARS-CoV-2 Spike protein peptide on HLA-A*23:01 (human)
T1 peptide: QYIKWPWYIW

[2] = target: T2, SARS-CoV-1 Spike protein peptide on HLA-A*24:02 (human)
T2 peptide: QYIKWPWYVW

[3] = target: T3, SARS-CoV-2 Spike protein peptide on HLA-A*24:02 (human)
T3 peptide: QYIKWPWYIW

Measured: binding result

B1: TCRQYI (TCR)
alpha TRAV20*01 TRAJ32*01 CDR3: CAALNYGGATNKLIF
beta TRBV4-3*01 TRBJ2-7*01 CDR3: CASSPSGGAYEQYF
recognises: all assays above
